In patent US20130023033A1, “PHARMACOLOGICALLY INDUCED TRANSGENE ABLATION SYSTEM” (The Trustees of the University of Pennsylvania, priority 2010, published 2013):
“Also recorded” adds a separate entry of the source. Each block holds one molecule with its values, some of them ahead of it.

Experiments:
[1] = system: GFP-Luciferase driven by a promoter induced by the dimerized TF; test: In vivo model for a dimerizer-inducible system (Xenogen imaging of luciferase after rapamycin); parameters: species or system mouse; conditions: rapamycin 2 mg/kg IP
Source text: Four groups of three mice received IV injection of AAV vectors encoding bicistronic reporter genes (GFP-Luciferase) at doses of 3×10^10, 1×10^11 and 3×10^11 particles of virus, respectively: Group 1 (G 1, G2, and G3) received AAV vectors expressing GFP Luciferase under the control of ubiquitous constitutive CMV promoter (see FIG. 16A for a diagram of the DNA construct). Group 2 (G4, G5, and G6) received co-injection of the following 2 AAV vectors: (1) AAV vector expressing a dimerizable transcription factor domain unit (FRB fused with p65 activation domain and DNA binding domain ZFHD fused with 3 copies of FKBP) driven by the CMV promoter (the DNA construct shown in FIG. 9B; and (2) AAV vector expressing GFP-Luciferase driven by a promoter induced by the dimerized TF (see FIG. 19C for a diagram of the DNA constructs). Group 3 (G7, G8, and G9) received AAV vector expressing GFP-Luciferase under the control of a liver constitutive promoter, TBG (see FIG. 16C for a diagram of the DNA construct). Group 4 (G10, G11, G12) received co-injection of the following 2 AAV vectors: (1) AAV vector expressing a dimerizable transcription factor domain unit (FRB fused with p65 activation domain and DNA binding domain ZFHD fused with 3 copies of FKBP) driven by the TBG promoter; and (2) AAV vector expressing GFP-Luciferase driven by a promoter induced by the dimerized TF (see FIG. 16D for a diagram of the DNA constructs).
About 2 weeks post virus administration, the mice were given IP injection of the dimerizer, rapamycin, at the dose of 2 mg/kg. Starting the next day the luciferase expression was monitored by Xenogen imaging analysis. Approximately 24 hours post rapamycin injection, the mice were IP injected with luciferin, the substrate for luciferase, then anesthetized for imaging.

[2] = system: pCMV.Luciferase reporter gene in HEK293 cells; test: Ablation of luciferase reporter by FokI ablators cotransfected with pCMV.Luciferase; assay type: cell-based, human; conditions: for expression of Luc reporter gene with increasing concentrations of ablator expression plasmid: 50 ng pCMV.Luciferase cotransfected with 6.25, 12.5, 25, 50 and 100 ng expression plasmid
Description: Open reading frames encoding for various endonucleases were codon optimized and de novo synthesized by GeneArt. Ablator expression and target plasmids were produced using standard molecular biological cloning techniques. Transfections were performed in HEK293 cells using Lipofectamine™ 2000 transfection reagent (Life Technologies). All transfections were performed using optimal transfection conditions as defined in transfection reagent protocol. Briefly, 200-250 ng plasmid DNA (excluding transfection control plasmid) was complexed with lipofectamine and added to cells in 96 well plates. DNA quantities were consistent across all conditions by supplementation with an unrelated plasmid containing the same promoter as test plasmids. Transfection complexes were incubated with cells for 4-6 hours as transfection reagent protocol before the addition of FBS supplemented media. Transfected cells were incubated at 37° C. for 24-72 hours. Following incubation, cells were assayed for reporter gene expression using Promega Dual Luciferase detection kit according to the manufacturer's instructions on a BioTek Clarity platereader and renilla luciferase was used to control for transfection efficiency. All samples were performed in quadruplicate and standard errors of the mean were calculated.

[3] = biological target: ZFHD-FKBP fusion with 3 copies of FKBP (3xFKBP) (UniProt P62942); test: cell-based or functional assay
Chain of UniProt P62942 (P62942 other isoform, or with tags, fused parts or gaps): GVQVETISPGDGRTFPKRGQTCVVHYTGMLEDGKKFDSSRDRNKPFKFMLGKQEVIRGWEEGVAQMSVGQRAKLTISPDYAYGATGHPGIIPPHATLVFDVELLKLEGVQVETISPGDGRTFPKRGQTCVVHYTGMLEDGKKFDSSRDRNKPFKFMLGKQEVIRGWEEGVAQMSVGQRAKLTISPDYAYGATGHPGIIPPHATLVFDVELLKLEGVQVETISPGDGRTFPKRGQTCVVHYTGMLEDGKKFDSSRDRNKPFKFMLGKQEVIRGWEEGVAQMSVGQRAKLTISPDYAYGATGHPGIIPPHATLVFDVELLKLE

Molecule: CO[C@H]1C[C@@H]2CC[C@@H](C)[C@@](O)(O2)C(=O)C(=O)N2CCCC[C@H]2C(=O)O[C@H]([C@H](C)C[C@@H]2CC[C@@H](O)[C@H](OC)C2)CC(=O)[C@H](C)/C=C(\C)[C@@H](O)[C@@H](OC)C(=O)[C@H](C)C[C@H](C)/C=C/C=C/C=C/1C [rapamycin]
level of luciferase expression compared to level of pre-induction ([1]; Group 2 mice (TF unit driven by CMV promoter + inducible GFP-Luciferase vector), 3×10^11 particles, about 24 h post rapamycin): more than 2 logs
luciferase expression induced compared to pre-inducement ([1]; Group 4 mice (TF unit driven by TBG promoter + inducible GFP-Luciferase vector), 3×10^11 particles, about 24 h post rapamycin): more than 100 fold
peak level of luciferase expression over baseline ([1]; dimerizer-inducible system): more than 2 logs

Molecule: ZFHD-FokI: FokI catalytic domain fused to a zinc finger homeodomain DNA binding domain (SEQ ID NO: 21), from expression plasmid
expression of Luc reporter gene with increasing concentrations of ablator expression plasmid [2]: dose dependent ablation; also recorded: effectively ablated expression of luciferase reporter in a dose dependent manner

luciferase expression in mice (Xenogen imaging) after rapamycin 2 mg/kg IP against pre-induction; Group 2, transcription factor domains driven by the CMV promoter [3]: 2 logs
luciferase expression in mice (Xenogen imaging) after rapamycin 2 mg/kg IP against pre-induction; Group 4, transcription factor domains driven by the TBG promoter [3]: > 100 fold
Molecule: FRB-TA fusion (FRB fragment of FRAP/mTOR, amino acids 2021-2113 with Thr2098Leu, fused to a 190 amino acid portion of human NF-KB p65)

B1: HTH-FokI: HTH from Gin, linker and FokI catalytic domain (SEQ ID NO: 6), from expression plasmid (protein)
chain: MGRPPRLTKAEWEQAGRLLAQGIPRKQVALIYDVALSTLYKKHPAKRAHIENDDRINGTKQLVKSELEEKKSELRHKLKYVPHEYIELIEIARNPTQDRILEMKVMEFFMKVYGYRGEHLGGSRKPDGAIYTVGSPIDYGVIVDTKAYSGGYNLPIGQADEMQRYVEENQTRNKHINPNEWWKVYPSSVTEFKFLFVSGHFKGNYKAQLTRLNHITNCNGAVLSVEELLIGGEMIKAGTLTLEEVRRKFNNGEINF
expression of Luc reporter gene with increasing concentrations of ablator expression plasmid [2]: effectively ablated expression of luciferase reporter in a dose dependent manner

B2: untethered FokI: FokI catalytic domain alone, 198 amino acids (SEQ ID NO: 14), from expression plasmid (protein)
chain: MKQLVKSELEEKKSELRHKLKYVPHEYIELIEIARNPTQDRILEMKVMEFFMKVYGYRGEHLGGSRKPDGAIYTVGSPIDYGVIVDTKAYSGGYNLPIGQADEMQRYVEENQTRNKHINPNEWWKVYPSSVTEFKFLFVSGHFKGNYKAQLTRLNHITNCNGAVLSVEELLIGGEMIKAGTLTLEEVRRKFNNGEINF
expression of Luc reporter gene with increasing concentrations of ablator expression plasmid [2]: no effect

B3: NLS-HTH-FokI: HTH-FokI with heterologous NLS added at the N-terminus of the coding sequence (protein)
chain: MPKKKRKVGRPPRLTKAEWEQAGRLLAQGIPRKQVALIYDVALSTLYKKHPAKRAHIENDDRINGTKQLVKSELEEKKSELRHKLKYVPHEYIELIEIARNPTQDRILEMKVMEFFMKVYGYRGEHLGGSRKPDGAIYTVGSPIDYGVIVDTKAYSGGYNLPIGQADEMQRYVEENQTRNKHINPNEWWKVYPSSVTEFKFLFVSGHFKGNYKAQLTRLNHITNCNGAVLSVEELLIGGEMIKAGTLTLEEVRRKFNNGEINF
modifications: SV40 NLS-Gin HTH-linker-FokI, coding sequence only; modified enzyme from SV40, Gin and FokI
activity (ablation of luciferase reporter) after adding heterologous NLS at the N-terminus ([2]; compared with HTH-FokI without NLS, separate experiment (FIG. 27B)): further improved

B4: wild-type FokI: full-length FokI enzyme (SEQ ID NO: 12) expressed from cotransfected plasmid pCMV.FokI (protein)
chain: MFLSMVSKIRTFGWVQNPGKFENLKRVVQVFDRNSKVHNEVKNIKIPTLVKESKIQKELVAIMNQHDLIYTYKELVGTGTSIRSEAPCDAIIQATIADQGNKKGYIDNWSSDGFLRWAHALGFIEYINKSDSFVITDVGLAYSKSADGSAIEKEILIEAISSYPPAIRILTLLEDGQHLTKFDLGKNLGFSGESGFTSLPEGILLDTLANAMPKDKGEIRNNWEGSSDKYARMIGGWLDKLGLVKQGKKEFIIPTLGKPDNKEFISHAFKITGEGLKVLRRAKGSTKFTRVPKRVYWEMLATNLTDKEYVRTRRALILEILIKAGSLKIEQIQDNLKKLGFDEVIETIENDIKGLINTGIFIEIKGRFYQLKDHILQFVIPNRGVGTKQLVKSELEEKKSELRHKLKYVPHEYIELIEIARNPTQDRILEMKVMEFFMKVYGYRGEHLGGSRKPDGAIYTVGSPIDYGVIVDTKAYSGGYNLPIGQADEMQRYVEENQTRNKHINPNEWWKVYPSSVTEFKFLFVSGHFKGNYKAQLTRLNHITNCNGAVLSVEELLIGGEMIKAGTLTLEEVRRKFNNGEINF
expression of the luciferase reporter gene ([2]; 50 ng pCMV.Luciferase, 200 ng pCMV.FokI or transfected FokI protein (FIG. 25A)): effective ablated expression
